Assay: soluble on expression in E. coli; label from the status in PepcDB or PDB records

| Sequence | soluble on expression in E. coli |
| --- | --- |
| GHSMHHHHHHLGNKLSISDLKDIKNKKVLVRVDFNVPIENGIIKDTNRITATLPTINHLKKEGASKIILISHCGRPDGLRNEKYTLKPVAETLKGLLGEEVLFLNDCVGKEVEDKINAAKENSVILLENLRFHIEEEGKGVDANGNKVKANKEDVEKFQNDLTKLADVFINDAFGTAHRAHSSMVGVKLNVKASGFLMKKELEYFSKALENPQRPLLAILGGAKVSDKIQLIKNLLDKVDRMIIGGGMAYTFKKVLNNMKIGTSLFDEAGSKIVGEIMEKAKAKNVQIFLPVDFKIADNFDNNANTKFVTDEEGIPDNWMGLDAGPKSIENYKDVILTSKTVIWNGPQGVFEMPNFAKGSIECLNLVVEVTKKGAITIVGGGDTASLVEQQNKKNEISHVSTGGGASLELLEGKELPGVLALSNK | soluble |
| GIDVIGKKMTLCQLYAKQNAVRPNVKANTKSGRKYLMEILKNDRLGARSIDSIKPSDAKEWAIRMSENGFAYSTINNYKRSLRASFYIAIQDDYVRKNPFDFQLNTVIDDDTIPKTVLTSEQEARLLDFAKSDTVYHKNYDEILILLKTGLRISELCGLTVSDLDFENHLISVDHQLLRNTELGYYIETPKTKSSERQIPMEATCQALKRTLAKRDDRKCVEIDGYSHFLFLNRKGYPKTSGDFDRILRNLIKKYNKYHEEKLPHITPHTLRHTFCTNCANAGMNPKALQYIMGHANITMTLNYYAHATYKFGYG | not soluble |
| GIHMGKIKRRAITEHEKRALRHYFFQLQNRSGQQDLIEWFREKFGKDISQPSVSQILSSKYSYLDNTVEKPWDVKRNRPPKYPLLEAALFEWQVQQGDDATLSGETIKRAAAILWHKIPEYQDQPVPNFSNGWLEGFRKRHILH | soluble |
| GKITFFEDRSFQGRCYECSSDCPNLQTYFSRCNSVRVDSGCWMLYERPNYQGHQYFLRRGEYPDYQQWMGFSDSIRSCRLIPHAGSHRMRLYEKEDHKGVMMELSEDCSCIQDRFHLSEVRSLQVLEGCWVLYEMPNYRGRQYLLRPQEYRRFQDWGSVDAKAGSLRRVVDLY | soluble |
| GKVNIIVPQYVRCPDICHYETLIMKSLMIKLFQENSLDDVVFVTVEVDPWRGSLEEADMYIKESTASLGFTPPWIWVGGNMEPLETLYKQLGLSVQLDSSTGLIVHTAGFYIVDRNGILLYYVKVEDEGWKNPGKVADVLEYVVNDALSK | not soluble |
| GLPARSSSISNTNRTGENPMITPIISSNLGLKHRVTLRKATLASLMQSLSGESSNRVMWNDRYDTLLIARDPREIKNAIEKSVTDFGGLENYKELTGGADPFALMTPVCGLSANNIFKLMTEKDVPIDPTSIEYLENTSFAEHVNTLDSHKNYVVIVNDGRLGHKFLIDLPALTQGPRTAYIIQSDLGGGALPAVRVEDWISRRGSDPVSLDELNQLLSKDFSKMPDDVQTRLLASILQIDKDPHKVDIKKLHLDGKLRFASHEYDFRQFQRNAQYVAGLG | soluble |
| GLSAAQRQVVASTWKDIAGSDNGAGVGKECFTKFLSAHHDMAAVFGFSGASDPGVADLGAKVLAQIGVAVSHLGDEGKMVAEMKAVGVRHKGYGNKHIKAEYFEPLGASLLSAMEHRIGGKMNAAAKDAWAAAYADISGALISGLQS | soluble |
| GLVPRGSHMYAELSPGTKKVYTQVRYLDDYHWEIEGSTITGIHKKSNVKVVIDVAKNREEADSLAGKDVNGIHIVAIPDNGVFYIKNGSFVLTYRYLKATLADINDHIVWSGFKVVEDNGKLVQEDVYEYLGAALVNHIKNNALAGQDYIFWQFYKCEECGKYVDIENLEAHLREHGIKLHEKSEEHYEVFELNFREGKVFDKFGGEVPMDKFSSEAREFIKEVLS | soluble |
| GMAEAKSRVGRPSGDTQNRDKLILAARNLFIERPYAQVSIREIASLAGTDPGLIRYYFGSKEKLFSTMIHETAMPVLAQLHKARRETRQESPAALLQTYYSVMSKHPHFPRLMLRIAGLDQSLPENAEVTKAFYEVVNFENIAIFQRLKDKNLLKDDVDAHCAQLSFFAMMVFPFIVPENLLERVGIELTPDFLQLLAEQNTRLLQRGLMDVKDERDE | soluble |
| GMATLGANASLYSEQHRITYYECDRTGRATLTTLIDIAVLASEDQSDALGLTTEMVQSHGVGWVVTQYAIDITRMPRQDEVVTIAVRGSAYNPYFAYREFWIRDADGQQLAYITSIWVMMSQTTRRIVKILPELVAPYQSEVVKRIPRLPRPISFEATDTTITKPYHVRFFDIDPNRHVNNAHYFDWLVDTLPATFLLQHDLVHVDVRYENEVKYGQTVTAHANILPSEVADQVTTSHLIEVDDEKCCEVTIQWRTLPEPIQ | soluble |
| GMDKLNEYRTKVRQLLTKHLQYKPSYGDVEVEQIFDEEHDHYQIISVGWNNQHRIYGPIMHLDIKNNKIWIQQNTTEADIALELMEMGIDKQDIVIGFHTPKMRQLSGFAVE | soluble |
| GMEAKLSSIEIPVGQDELSGTLLTPTGMPGVLFVHGWGGSQHHSLVRAREAVGLGCICMTFDLRGHEGYASMRQSVTRAQNLDDIKAAYDQLASLPYVDAHSIAVVGLSYGGYLSALLTRERPVEWLALRSPALYKDAHWDQPKVSLNADPDLMDYRRRALAPGDNLALAACAQYKGDVLLVEAENDVIVPHPVMRNYADAFTNARSLTSRVIAGADHALSVKEHQQEYTRALIDWLTEMVVGRRIALAKEVVAARKQLLKEQQGDAVSLPGQGSREFRGDIRAVEKTSA | soluble |
| GMEMTKVTGKFDVKLTPENAYATGVGGVNLGRMALDKTFYGELEARSQGEMLSAMTAVKGSAGYVAIEQVVGKLCGRQGSFVLQHFGIMTDGQNRLHLEVVPHSGAGELTGLYGTMAISIENGQHFYEFSFCFEPASEVEG | soluble |
| GMISDSISKRRSIRKYKNQSISHETIEKIIEAGINAPSSKNRQPWRFVVITEKEKESMLKAMSKGIQNEINDNGLLPGSRQHIAGANYTVEIMKQAPVTIFILNILGKSPLEKLSPEERFYEMANMQSIGAAIQNMSLTAVELGLGSLWICDVYFAYRELCEWLNTDSQLVAAISLGYPDEEPSRRPRLQLSDVTEWR | soluble |
| GMKPIKEIADQLELKDDILYPYGHYIAKIDHRFLKSLENHEDGKLILVTAVTPTPAGEGKTTTSIGLSMSLNRIGKKSIVTLREPSLGPTLGLKGGATGGGRSRVLPSDEINLHFTGDMHAVASAHNLLAAVLDSHIKHGNELKIDITRVFWKRTMDMNDRALRSIVIGLGGSANGFPREDSFIITAASEVMAILALSENMKDLKERLGKIIVALDADRKIVRISDLGIQGAMAVLLKDAINPNLVQTTEGTPALIHCGPFANIAHGTNSIIATKMAMKLSEYTVTEAGFGADLGAEKFIDFVSRVGGFYPNAAVLVATVRALKYHGGANLKNIHEENLEALKEGFKNLRVHVENLRKFNLPVVVALNRFSTDTEKEIAYVVKECEKLGVRVAVSEVFKKGSEGGVELAKAVAEAAKDVEPAYLYEMNDPVEKKIEILAKEIYRAGRVEFSDTAKNALKFIKKHGFDELPVIVAKTPKSISHDPSLRGAPEGYTFVVSDLFVSAGAGFVVALSGDINLMPGLPKKPNALNMDVDDSGNIVGVS | soluble |
| GMMVPHLTTALTGPLLTLEKRLLDNMPRIEHWFRSQWQEYGAPFYASVDLRNAGFKLAPVDTNLFPGGFNNLNPDFLPLCIQAAMVAVEKICPDARRLLLIPENHTRNTFYLRNVHALTHILRQAGLEVRIGSIAPEITAPTFLETHDGHSILLEPVRRKANRLELDNFDSCAILLNNDLSGGIPDILQGLEQSLIPPLHAGWATRRKSNHFTAYDRVVEEFAPLIDIDPWLLNPYFDTCGGLDFHARLGEEQLAEKVDSLLAKIRRKYAEYGVKQEPFVIVKADAGTYGMGIMTVKSADDVRDLNRKQRNKMSVVKEGLKVSEVILQEGVYTFEHLKDAVAEPVIYMMDHFVVGGFYRVHTSRGADENLNAPGMHFEPLTFETPCSTPDCAGAPDAAPNRFYAYGVVARLALLAATIELQETDPDLLDERT | soluble |
| GMNNIQAIRKKVETQIDDLQNKTDEIAEFNQAKVLDAFQENKVSDFHFHPSTGYGYDDEGRDTLERVYATVFKTEAALVRPQIISGTHAISTVLFGILRPDDELLYITGQPYDTLEEIVGIRKQGQGSLKDFHIGYSSVPLLENGDVDFPRIAKKMTPKTKMIGIQRSRGYADRPSFTIEKIKEMIVFVKNINPEVIVFVDNCYGEFVEYQEPPEVGADIIAGSLIKNPGGGLAKTGGYIAGKEALVDLCGYRLTTPGIGREAGASLYSLLEMYQGFFLAPHVTAQAIKGARFTAAMLAEFGVEADPVWDAPRTDLIQSVSFHNKEKMVAFAQAIQAASPVNAHVLPIGAYMPGYEDDVIMAAGTFIQGASLELTADGPIREPYQLYVQGGLTYEHIKIAVTRAIQKIV | soluble |
| GMNRGKALQLVKPHLTEHRYQHTIGVMETAIDLAKLYGADQQKAELAAIFHDYAKFRDKNEMRTLIREKLSQQDILFYGDELLHAPCGAYYVREEVGIEDEDVLQAIRFHTTGRPNMSLLEKIIFLADYIEPNRQFPGVEKVRTQAKTDLNGAIISSLVNTITFLLKKNQPIYPDTLATYNQLLLEQK | soluble |
| GMPALITYRTTVQEDWVDYNGHLRDAFYLLIFSYATDALMDRIGLDADSRGQSGNSLFTLEAHINYLHEVKLGTEVWVQTQILGFDRKRLHVYHSLHRAGFDEVLAASEQMLLHVDLAGPQSAPFGHTTVCRLNHLVEQQEGAQAPQYMGRTIKLPA | soluble |
| GMPAPLRFSSDKPLLLLIDMQQAVDDPSWGPRNHPQAEQACAGLLQAWRARGLPLIHIRHDSVEPNSTYRPGQPGHAFKPEVEPRPGETVIAKQTNSAFIGTGLEALLRANGWLELVVAGVSTSNSVEATVRMAGNLGFAVCLAEDGCFTFDKTDWHGRRRSADEVHAMSLANLDGEYCRVCGSADILAALGNIAGAA | soluble |
| GMREEKIREALNAHWQASAAGDFDAEHDIYDDDAICDYPQSGERILGRMNLQALRSHHPGKPAGFEVRRIQGEGNLWITEYSISYNGRPAYTVSIMEFRNGKVVHETQYFSDPFEAPGWRSQWVQQIG | soluble |
| GMSAGQSSLSFAHGDETHPIEQKAFIGVDSAAGNVVKQFHAALQMGNEAIVRQSLAANVQIYEGGKVERSLTEYANHHMLADMAYLKGLTITPKEHQITITGDIAISTSISHAQGEYKGKSIDSMTMETLVLIKQADGRWKITHVHWS | soluble |
| GMSLIEIRKRTLIVETTYHENGPAPAQPLKLAASCAVIRNPYAGRYEPDLMPFMAELRSLGTLLATELVDTLGKDNIEVYSKAAIVGVDGEMEHGAVWHEAGGWAMRSVLGEPKAMVPAVKAVATAGYRMMVPVHYIHASYVRSHFNSIEIGIQDAPRPREILFALVMGTGARVHARLGGLTKEAVSVHDGQR | soluble |
| GMSTDTCIKRPTRSELVDRFQKKIRAGEPIIGGGAGTGLSAKSEEAGDIDLIVIYNSGRYRMAGRGSLAGLLAYGNANQIVVDMAREVLPVVRHTPVLAGVNGTDPFMVMSTFLRELKEIGFAGVQNFPTVGLIDGLFRQNLEETGMSYAQEVEMIAEAHKLDLLTTPYVFSPEDAVAMAKAGADILVCHMGLTTGGAIGARSGKSMDDCVSLINECIEAARTIRDDIIILSHGGPIANPEDARFILDSCQGCHGFYGASSMERLPAEEAIRSQTLAFKAIRRQPA | soluble |
| GMTFRDTSAIASWHAHVYFDASSRDAAWTLREQIEAHWSGKLQLGRFHERPVGPHPMWSYQLAFTQEQFADLVGWLTLNHGALDIFLHPNTGDALRDHRDAAVWIGHSHELVLSALN | soluble |

— the DeepSol protein solubility set
